From patent US8501695B2, “Tissue kallikrein for the treatment of diseases associated with amyloid protein” (DiaMedica, Inc., priority 2007, dated 2013)

Test: Pharmacokinetic study of intranasal tissue kallikrein (125I-KLK1 tissue concentrations by gamma counting)
Format: in vivo
Details: rat
Experimental: The purpose of this study was to quantify the amount of tissue kallikrein (KLK1) reaching the central nervous system and peripheral tissues after intranasal administration to anesthetized rats. At 30 min after KLK1 administration, animals were transcardially perfused with ice-cold saline followed by paraformaldehyde fixative and tissues were dissected. The amount of radiolabeled KLK1 in each tissue sample was quantified by gamma counting and tissue concentrations were calculated using tissue weight and gamma counting of standards of the dosing solutions
Adult male Sprague Dawley rats (n=10, mean 335.4 g±4.57 g SE) were used for this study. Animals were group housed in the Regions Hospital Animal Care Facility with free access to food and water. Animals were kept on a 12 h light cycle. All experimental procedures were approved by the Animal Care and Use Committee at Regions Hospital under IACUC protocol number 08-022.
Tissue kallikrein was sent to Perkin-Elmer for ^125I-labelling (Quote NEX-084, lot C1541583). Non-labeled KLK1 from Sigma (cat#K3627-1KU, lot 018K1441) was also used. Non-labeled KLK1 was dissolved in 1×PBS (10×PBS, Sigma, cat #P5493, lot 027K8405 diluted in sterile water). The average dose was 48.1 μL, 75 μCi, and 2.6 mg.
• a. Prior to anesthesia, each rat was weighed. • b. An anesthesia cocktail was prepared and full, half, and quarter anesthesia doses were calculated according to the animal's weight with a full dose containing 30 mg/kg ketamine, 6 mg/kg xylazine, and 1 mg/kg acepromazine. • c. A 1-cc syringe fitted with a 25 G or 27 G, ½ inch needle was assembled and a full dose was drawn into the syringe for injection. • d. Rats were restrained in a towel as follows. Rats were placed ventral side down in the middle of a hand towel. The towel was then wrapped around the head and shoulders to restrain. Wrapped animals remained ventral side down while the left hind leg was located. • e. The left hind leg was drawn to the side and the needle was inserted just beneath the skin (subcutaneous) above the thigh. After ensuring that the needle was placed subcutaneously (and not intramuscularly), full doses were injected. Rats were placed in holding cages and the injection time noted. Animals should be under within 5 min. • f. Anesthesia was monitored throughout the procedures by assessing reflexes using pinching of the hind paw or tail. If a reflex was present, a half or quarter dose booster was administered as necessary. • g. During drug administration, animals received a half dose booster roughly 20-25 min after initial dose. Intranasal Delivery of ^125I-KLK1 • a. Anesthetized rats were placed on their backs on a heating pad in a metal surgical tray. The heating pad was connected to a thermostat and was automatically regulated to maintain a 37° C. temperature based on continuous measurement from a rectal probe. • b. A 2″×2″ gauze pad was rolled tightly into a pillow, taped together, and under the neck to maintain a correct neck position horizontal with the counter. • c. A lead impregnated shield was placed between the surgical tray and the experimenter for protection against radiation. The dose solution, pipette, pipette tips, and waste receptacle were arranged behind the shield for easy access. • d. A 6 μL drop was loaded into the pipette behind the shield. • e. A cotton swab covered in parafilm was used to occlude one naris completely (the flat part of the swab was pushed gently against the naris to prevent airflow), while the 6 μL drop was expelled slowly from the pipette (held at a 45° angle from the rat's midline), forming a drop on the pipette tip. The drop was lowered onto the open naris to be inhaled. • f. After two minutes, the alternate naris was occluded and a 6 μL drop was administered in the same fashion. • g. A drop was administered as described above every two minutes to alternating nares until a total of 8 drops was delivered (4 to each naris) over 14 min. • h. […]

[1] = 30 min. end point, Avg, outliers removed

B1: tissue kallikrein: serine protease that cleaves kininogen into kallidin; polypeptide SEQ ID NO:1 (Sus scrofa kallikrein 1), KLK1 from Sigma (protein, listed as Sus scrofa)
chain: MWSLVMRLALSLAGTGAAPPIQSRIIGGRECEKDSHPWQVAIYHYSSFQCGGVLVDPKWVLTAAHCKNDNYQVWLGRHNLFENEVTAQFFGVTADFPHPGFNLSLLKNHTKADGKDYSHDLMLLRLQSPAKITDAVKVLELPTQEPELGSTCQASGWGSIEPGPDDFEFPDEIQCVELTLLQNTFCADAHPDKVTESMLCAGYLPGGKDTCMGDSGGPLICNGMWQGITSWGHTPCGSANKPSIYTKLIFYLDWINDTITENP
modifications: 125I label in one form
reaching target regions (frontal cortex, temporal cortex, hippocampus, cerebral blood vessel walls, cervical nodes) (30 min): effectively reached target regions
concentration in Amygdala [1]: 16.2 nM
concentration in Anterior Olfactory Nucleus [1]: 26.8 nM
concentration in Anterior Trigeminal Nerve [1]: 109.1 nM
concentration in Axillary Nodes (2) [1]: 42.3 nM
concentration in Blood Sample [1]: 268.4 nM
concentration in Carotid Artery [1]: 113.4 nM
concentration in Cerebellum [1]: 10.9 nM
concentration in Cervical Nodes (2) [1]: 122.3 nM
concentration in Circle of Willis & Basilar Artery [1]: 103.3 nM
concentration in Dorsal Dura [1]: 132.9 nM
concentration in Esophagus [1]: 85.2 nM
concentration in Extra Cortex [1]: 13.0 nM
concentration in Extra Slice #1 [1]: 23.6 nM
concentration in Extra Slice #2 [1]: 16.7 nM
concentration in Extra Slice #3 [1]: 13.9 nM
concentration in Extra Slice #4 [1]: 12.0 nM
concentration in Extra Slice #5 [1]: 11.8 nM
concentration in Extra Slice #6 [1]: 11.3 nM
concentration in Frontal Cortex [1]: 23.9 nM
concentration in Heart [1]: 22.6 nM
concentration in Hippocampus [1]: 10.7 nM
concentration in Hypothalamus [1]: 22.2 nM
concentration in Kidney (L, tip) [1]: 134.8 nM
concentration in Liver (R, superficial lobe) [1]: 25.7 nM
concentration in Lower Cervical Spinal Cord [1]: 7.1 nM
concentration in Lumbar Spinal Cord [1]: 4.9 nM
concentration in Lung (R, top lobe) [1]: 37.2 nM
concentration in Medulla [1]: 14.9 nM
concentration in Midbrain [1]: 12.5 nM
concentration in Muscle (R, deltoid) [1]: 21.4 nM
concentration in Occipital Cortex [1]: 12.8 nM
concentration in Olfactory Bulbs [1]: 107.1 nM
concentration in Olfactory Epithelium [1]: 24,762.6 nM
concentration in Optic Chiasm [1]: 29.4 nM
concentration in Parietal Cortex [1]: 12.1 nM
concentration in Pituitary [1]: 60.1 nM
concentration in Pons [1]: 14.4 nM
concentration in Posterior Trigeminal Nerve [1]: 51.8 nM
concentration in Renal artery (L) [1]: 58.1 nM
concentration in Respiratory Epithelium [1]: 75,970.0 nM
concentration in Septal Nucleus [1]: 12.1 nM
concentration in Spinal Dura [1]: 26.6 nM
concentration in Spleen (tip) [1]: 72.6 nM
concentration in Striatum [1]: 9.8 nM
concentration in Superficial Nodes (2) [1]: 63.1 nM
concentration in Temporal Cortex [1]: 12.4 nM
concentration in Thalamus [1]: 10.3 nM
concentration in Thoracic Spinal Cord [1]: 5.2 nM
concentration in Thyroid [1]: 1970.6 nM
concentration in Trachea [1]: 77.7 nM
concentration in Upper Cervical Spinal Cord [1]: 23.4 nM
concentration in Urine [1]: 130.7 nM
